In patent publication US20210132068A1:

Biological target: CD20 on CD20+ Daudi lymphoma cells (UniProt P11836)
Experiment: flow cytometry on CD20+ Daudi lymphoma cells, 30 minutes at 4° C.

Sequence of UniProt P11836 (P11836 whole entry): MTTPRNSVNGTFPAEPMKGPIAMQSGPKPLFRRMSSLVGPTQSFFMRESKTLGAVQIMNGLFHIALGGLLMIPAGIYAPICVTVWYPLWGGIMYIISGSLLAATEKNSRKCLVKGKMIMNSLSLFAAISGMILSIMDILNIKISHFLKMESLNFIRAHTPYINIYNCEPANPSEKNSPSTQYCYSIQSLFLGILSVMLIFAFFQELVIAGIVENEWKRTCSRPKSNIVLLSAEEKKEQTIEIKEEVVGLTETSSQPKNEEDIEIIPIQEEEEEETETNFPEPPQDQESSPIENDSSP

% positive cells: 95%
Substance: FITC-rituximab (antibody)
